The results in this text go back to article PMC3667669 (2014).

For this test, the target named is Cdc42 (Homo sapiens, UniProt P60953). Description: fluorescence intensity titration.

Where no end group is shown, it is not given here.

Chain of Cdc42 (P60953 1-188): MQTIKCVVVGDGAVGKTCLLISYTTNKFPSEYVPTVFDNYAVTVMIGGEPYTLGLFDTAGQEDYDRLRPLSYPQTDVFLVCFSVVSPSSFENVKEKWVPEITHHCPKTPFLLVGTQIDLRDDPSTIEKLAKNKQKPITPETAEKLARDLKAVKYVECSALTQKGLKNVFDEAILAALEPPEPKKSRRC

B1: WASP CBD (Cdc42 binding domain) (protein)
chain: KKKISKADIGAPSGFKHVSHVGWDPQNGFDVNNLDPDLRSLFSRAGISEAQLTDAETSK
modifications: also: MBP fusion, mero87 dye label, site not given here
One may read the Kd as the concentration at which binding is half-saturated. A lower Kd goes with tighter binding. The molecule B1 yielded a Kd of 186 nM.

B2: WASP CBD (Cdc42 binding domain) (protein)
chain: KKKISKADIGAPSGFKHVSHVGWDPQNGFDVNNLDPDLRSLFSRAGISEAQLTDAETSK
modifications: also: MBP fusion, mero61 dye label, site not given here
B2 had a Kd of 144 nM.
